Measurements taken from paper PMC12855868, “Deep Mutational Scanning of FDX1 Identifies Key Structural Determinants of Lipoylation and Cuproptosis” (Nature Communications, 2025).

How the values were obtained:
[1] = molecular target: T1, FDXR (a.a 33-491), tagless (human, UniProt P22570 33-491, labelled with the RED-NHS 2nd generation protein labeling kit); test: Temperature-Related Intensity Change (TRIC) fluorescence; 50 nM RED-NHS-labelled tagless FDXR as target, His-tagged FDX1 WT or variant serially diluted (11 points from 54-68 µM); anaerobic; 25 mM MOPS pH 7.5, 125 mM KCl, 125 mM NaCl, 5% glycerol, 0.05% Tween; 30 min at room temperature, read at 22 °C; Dianthus NT.23; details: both partners purified
T1 construct: ferredoxin reductase (FDXR), human, residues 33-491, lacking the mitochondrial transit peptide; pDWSUMO; Cleavage of the SUMO tag by ULP1 leaves a Gly-His appendage at the N-terminus; also called ferredoxin reductase; mitochondrial NADPH-dependent ferredoxin reductase; source: E. coli BL21 (DE3), purified; not shown: His6-SUMO, N-terminal, cleaved
T1 sequence (looked up): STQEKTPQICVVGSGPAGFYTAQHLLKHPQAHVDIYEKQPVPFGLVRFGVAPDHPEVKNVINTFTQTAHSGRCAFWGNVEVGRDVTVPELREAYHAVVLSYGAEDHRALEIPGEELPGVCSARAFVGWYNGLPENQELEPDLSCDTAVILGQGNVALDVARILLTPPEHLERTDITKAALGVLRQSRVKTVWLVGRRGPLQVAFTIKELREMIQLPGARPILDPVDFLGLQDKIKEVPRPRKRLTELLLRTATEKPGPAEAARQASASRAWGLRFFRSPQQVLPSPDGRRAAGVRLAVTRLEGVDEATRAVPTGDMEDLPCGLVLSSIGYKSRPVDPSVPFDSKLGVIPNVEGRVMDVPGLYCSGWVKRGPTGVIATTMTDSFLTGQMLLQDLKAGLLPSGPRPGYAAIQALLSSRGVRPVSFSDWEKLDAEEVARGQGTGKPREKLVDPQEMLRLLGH

[2] = molecular target: T2, LIAS (aa 28-372), tagless (UniProt O43766 28-372); test: Temperature-Related Intensity Change (TRIC) fluorescence; 100 nM Red-Tris-NTA-labelled His-tagged FDX1 WT or variant as target, tagless LIAS serially diluted (10 points from 63 µM); anaerobic; 25 mM MOPS pH 7.5, 125 mM KCl, 125 mM NaCl, 5% glycerol, 0.05% Tween; 30 min at room temperature, read at 22 °C; Dianthus NT.23; details: both partners purified
T2 construct: lipoic acid synthase (LIAS), residues 28-372, lacking the mitochondrial transit peptide; pDWSUMO; Cleavage of the SUMO tag by ULP1 leaves a Gly-His appendage at the N-terminus; Carries reconstituted Fe-S clusters; also called lipoic acid synthase; source: E. coli BL21 (DE3) carrying pDB1282, purified, iron-sulfur clusters reconstituted; not shown: His6-SUMO, N-terminal, cleaved
T2 sequence (looked up): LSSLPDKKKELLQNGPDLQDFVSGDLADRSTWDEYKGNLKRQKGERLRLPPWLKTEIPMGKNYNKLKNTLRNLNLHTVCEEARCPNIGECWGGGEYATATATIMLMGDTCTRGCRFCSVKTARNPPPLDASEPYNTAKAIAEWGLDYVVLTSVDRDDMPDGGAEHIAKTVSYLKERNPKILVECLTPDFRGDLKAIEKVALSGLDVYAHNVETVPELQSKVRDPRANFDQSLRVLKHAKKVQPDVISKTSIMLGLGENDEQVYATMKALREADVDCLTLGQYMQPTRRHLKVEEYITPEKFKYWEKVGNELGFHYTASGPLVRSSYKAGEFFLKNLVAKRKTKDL

[3] = molecular target: T3, FDX1 WT (aa 61-184), N-terminal hexa-histidine tag (human), P10109; test: as above; details: remark: other sources report otherwise
T3 chain: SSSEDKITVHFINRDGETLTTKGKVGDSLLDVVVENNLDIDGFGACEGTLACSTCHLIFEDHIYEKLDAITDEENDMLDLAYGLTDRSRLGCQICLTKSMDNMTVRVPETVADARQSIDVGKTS

B1: FDX1 WT (aa 61-184), N-terminal hexa-histidine tag (domain or fragment, human, UniProt P10109 61-184, looked up)
chain: SSSEDKITVHFINRDGETLTTKGKVGDSLLDVVVENNLDIDGFGACEGTLACSTCHLIFEDHIYEKLDAITDEENDMLDLAYGLTDRSRLGCQICLTKSMDNMTVRVPETVADARQSIDVGKTS
notes: ferredoxin 1 (FDX1), human, residues 61-184, lacking the mitochondrial transit peptide; pET28a; Carries a reconstituted Fe-S cluster; In the FDX1-LIAS TRIC assay it was labelled on the His tag with the Red-Tris-NTA 2nd generation dye; in the FDXR assay it was the unlabelled ligand; also called ferredoxin 1; source: E. coli BL21 (DE3) carrying pDB1282, purified, iron-sulfur cluster reconstituted; …
Work on B1 yielded a Kd [1] of 1500 ± 200 nM.

B2: FDX1 D136R (aa 61-184), N-terminal hexa-histidine tag (domain or fragment, human, UniProt P10109 61-184, looked up)
chain: SSSEDKITVHFINRDGETLTTKGKVGDSLLDVVVENNLDIDGFGACEGTLACSTCHLIFEDHIYEKLDAITDEENRMLDLAYGLTDRSRLGCQICLTKSMDNMTVRVPETVADARQSIDVGKTS
notes: ferredoxin 1 (FDX1), human, residues 61-184, lacking the mitochondrial transit peptide; pET28a; Carries a reconstituted Fe-S cluster; Labelled with Red-Tris-NTA dye in the LIAS assay only; source: E. coli BL21 (DE3) carrying pDB1282, purified, iron-sulfur cluster reconstituted; not shown: His6, N-terminal, kept
With B2 the Kd [1] was 2200 ± 300 nM and the Kd [2] was 4500 ± 800 nM.

B3: FDX1 D136A (aa 61-184), N-terminal hexa-histidine tag (domain or fragment, human, UniProt P10109 61-184, looked up)
chain: SSSEDKITVHFINRDGETLTTKGKVGDSLLDVVVENNLDIDGFGACEGTLACSTCHLIFEDHIYEKLDAITDEENAMLDLAYGLTDRSRLGCQICLTKSMDNMTVRVPETVADARQSIDVGKTS
notes: as for B2
B3 showed a Kd [1] of 1800 ± 300 nM and a Kd [2] of 3200 ± 300 nM.

B4: FDX1 D139R (aa 61-184), N-terminal hexa-histidine tag (domain or fragment, human, UniProt P10109 61-184, looked up)
chain: SSSEDKITVHFINRDGETLTTKGKVGDSLLDVVVENNLDIDGFGACEGTLACSTCHLIFEDHIYEKLDAITDEENDMLRLAYGLTDRSRLGCQICLTKSMDNMTVRVPETVADARQSIDVGKTS
notes: as for B2
B4 gave a Kd [1] of 2100 ± 200 nM and a Kd [2] of 2500 ± 600 nM.

B5: FDX1 D139A (aa 61-184), N-terminal hexa-histidine tag (domain or fragment, human, UniProt P10109 61-184, looked up)
chain: SSSEDKITVHFINRDGETLTTKGKVGDSLLDVVVENNLDIDGFGACEGTLACSTCHLIFEDHIYEKLDAITDEENDMLALAYGLTDRSRLGCQICLTKSMDNMTVRVPETVADARQSIDVGKTS
notes: as for B2
For B5, the Kd [1] was 1500 ± 300 nM and the Kd [2] was 4900 ± 600 nM.

B6: LIAS (aa 28-372), tagless, O43766 28-372 (enzyme)
chain: LSSLPDKKKELLQNGPDLQDFVSGDLADRSTWDEYKGNLKRQKGERLRLPPWLKTEIPMGKNYNKLKNTLRNLNLHTVCEEARCPNIGECWGGGEYATATATIMLMGDTCTRGCRFCSVKTARNPPPLDASEPYNTAKAIAEWGLDYVVLTSVDRDDMPDGGAEHIAKTVSYLKERNPKILVECLTPDFRGDLKAIEKVALSGLDVYAHNVETVPELQSKVRDPRANFDQSLRVLKHAKKVQPDVISKTSIMLGLGENDEQVYATMKALREADVDCLTLGQYMQPTRRHLKVEEYITPEKFKYWEKVGNELGFHYTASGPLVRSSYKAGEFFLKNLVAKRKTKDL
B6 gave a Kd [3] of 3200 nM.
